From the Immune Epitope Database (IEDB)

What was measured:
HLA-A*02:01 [1] = assay: IEDB peptide-MHC binding, cellular MHC/competitive/fluorescence; ≥ and ≤ were set here for values at or beyond the usual limits of such assays
HLA-A*02:03 = assay: as above
HLA-A*02:06 [2] = assay: as above
HLA-A*68:02 [3] = assay: as above
HLA-A*02:02 [4] = assay: IEDB peptide-MHC binding, purified MHC/competitive/radioactivity; ≥ and ≤ were set here for values at or beyond the usual limits of such assays
HLA-A*02:02 [5] = assay: IEDB peptide-MHC binding, cellular MHC/competitive/fluorescence; ≥ and ≤ were set here for values at or beyond the usual limits of such assays; settings: source organism: Vaccinia virus WR
HLA-A*02:06 [6] = assay: IEDB peptide-MHC binding, purified MHC/competitive/radioactivity; ≥ and ≤ were set here for values at or beyond the usual limits of such assays; settings: source organism: Vaccinia virus WR
HLA-A*02:01 [7] = assay: as above; settings: source organism: Vaccinia virus WR
HLA-A*68:02 [8] = assay: as above; settings: source organism: Vaccinia virus WR
[9] = source organism: Vaccinia virus WR
[10] = source organism: Mammarenavirus machupoense

Sequence	IC50 (HLA-A*02:01 [1]; [9]) [µM]	IC50 (HLA-A*02:03; [9]) [µM]	IC50 (HLA-A*02:06 [2]; [9]) [µM]	IC50 (HLA-A*68:02 [3]; [9]) [µM]	IC50 (HLA-A*02:02 [4]; [9]) [nM]	IC50 (HLA-A*02:02 [5]) [µM]	IC50 (HLA-A*02:06 [6]) [nM]	IC50 (HLA-A*02:01 [7]) [nM]	IC50 (HLA-A*68:02 [8]) [nM]	IC50 (HLA-A*02:01 [1]; [10]) [µM]	IC50 (HLA-A*02:03; [10]) [µM]	IC50 (HLA-A*02:06 [2]; [10]) [µM]	IC50 (HLA-A*68:02 [3]; [10]) [µM]	IC50 (HLA-A*02:02 [4]; [10]) [nM]
QAKKPEVRI	39.7	6.57	42	≥ 70	738									
FVVNGHTCM	22.3	5.9		7.46		6.64	1810							
PIPYSRVNHA	54	15.3		48.3		11.7	1450							
IIDLLLPST	5.65	10.3		≥ 70		15.1	1120							
KADAVVADL		12.4		23.4		5.14	2210	3960						
KLISEKETL	10.2	24.7	7.65	≥ 70	841									
IVQLPKRGV	15.3	8.75				12	3120		4270					
VATFRDMLL	8.94	9.94	7.71	5.92	2530									
DIIDLLLPST		6.59				14.5	284	949	164					
VAVNKSNKPL	45	5.13	17.6	9.35	2750									
LNVSYLCHL										6.27	7.1	13.7	20.3	297
LISILMIFI		5	7.03	10.5	2370			1290						
GTGILFMEM	6.37	7.73	9.97	26.5	2200									
FANVISKIYT	15.7	5.31		5.49		7.79	1660							
DTDIVNNFIT	7.86	5.59		7.68		8.59	2310							
NAILHNIYRL		10.2				5.61	576	540	724					
